From patent US20240409906, “INTEGRASES, LANDING PAD ARCHITECTURES, AND ENGINEERED CELLS COMPRISING THE SAME” (Asimov Inc., published 2024) come the findings set out here.

Common to all, as to conditions: tags: C-terminal GS linker-SV40 NLS
The target in data set [1] is T1, Int21 (Streptococcus mitis B6).
T1 chain: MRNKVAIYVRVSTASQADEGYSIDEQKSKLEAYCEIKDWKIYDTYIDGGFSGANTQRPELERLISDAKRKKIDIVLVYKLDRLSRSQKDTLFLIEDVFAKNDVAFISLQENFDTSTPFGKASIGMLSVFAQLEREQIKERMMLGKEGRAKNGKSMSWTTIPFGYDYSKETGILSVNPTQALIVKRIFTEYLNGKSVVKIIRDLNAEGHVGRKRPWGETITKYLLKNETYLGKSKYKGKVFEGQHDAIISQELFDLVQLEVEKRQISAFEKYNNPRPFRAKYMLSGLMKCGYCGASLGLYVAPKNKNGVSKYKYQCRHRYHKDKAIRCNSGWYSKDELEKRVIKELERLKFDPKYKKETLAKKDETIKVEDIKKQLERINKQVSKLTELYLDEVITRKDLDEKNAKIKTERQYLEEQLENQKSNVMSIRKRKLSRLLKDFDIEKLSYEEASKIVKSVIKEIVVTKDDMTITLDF
As to the kind of experiment: cell_activity; attB x attP EGFP inversion reporter, HEK293FT.

The target in data set [2] is T2, Int22 (Geobacillus thermoglucosidasius C56-YS93).
T2 chain: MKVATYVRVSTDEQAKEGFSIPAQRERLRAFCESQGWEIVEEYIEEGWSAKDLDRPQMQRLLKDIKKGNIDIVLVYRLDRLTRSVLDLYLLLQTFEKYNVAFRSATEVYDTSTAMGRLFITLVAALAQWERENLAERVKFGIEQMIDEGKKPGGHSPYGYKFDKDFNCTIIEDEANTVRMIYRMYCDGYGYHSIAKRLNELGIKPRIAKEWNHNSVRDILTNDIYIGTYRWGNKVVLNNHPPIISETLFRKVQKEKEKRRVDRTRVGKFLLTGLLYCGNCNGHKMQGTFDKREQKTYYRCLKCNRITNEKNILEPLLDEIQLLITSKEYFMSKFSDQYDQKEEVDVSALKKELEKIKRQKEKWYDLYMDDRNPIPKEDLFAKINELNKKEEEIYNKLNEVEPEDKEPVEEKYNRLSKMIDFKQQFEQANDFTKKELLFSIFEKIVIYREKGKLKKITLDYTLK
The data set is described as above.

Data set [3] addresses T3, Int14 (Listeria innocua Clip11262).
T3 chain: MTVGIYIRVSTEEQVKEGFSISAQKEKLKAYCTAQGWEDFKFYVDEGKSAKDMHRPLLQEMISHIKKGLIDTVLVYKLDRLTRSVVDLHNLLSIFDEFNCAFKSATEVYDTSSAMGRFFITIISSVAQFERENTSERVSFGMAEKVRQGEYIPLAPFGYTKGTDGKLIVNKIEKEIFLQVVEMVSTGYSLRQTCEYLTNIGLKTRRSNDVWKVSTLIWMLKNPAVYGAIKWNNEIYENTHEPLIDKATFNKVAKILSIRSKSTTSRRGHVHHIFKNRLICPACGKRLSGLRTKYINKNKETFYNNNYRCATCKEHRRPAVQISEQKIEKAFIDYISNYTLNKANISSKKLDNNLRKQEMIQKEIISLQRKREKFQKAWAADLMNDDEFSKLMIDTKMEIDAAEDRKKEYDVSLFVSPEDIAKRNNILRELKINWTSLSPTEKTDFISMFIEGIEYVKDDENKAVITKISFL
The data set is described as above.

The target of data set [4] is T4, Int16 (Enterococcus faecalis D32).
T4 chain: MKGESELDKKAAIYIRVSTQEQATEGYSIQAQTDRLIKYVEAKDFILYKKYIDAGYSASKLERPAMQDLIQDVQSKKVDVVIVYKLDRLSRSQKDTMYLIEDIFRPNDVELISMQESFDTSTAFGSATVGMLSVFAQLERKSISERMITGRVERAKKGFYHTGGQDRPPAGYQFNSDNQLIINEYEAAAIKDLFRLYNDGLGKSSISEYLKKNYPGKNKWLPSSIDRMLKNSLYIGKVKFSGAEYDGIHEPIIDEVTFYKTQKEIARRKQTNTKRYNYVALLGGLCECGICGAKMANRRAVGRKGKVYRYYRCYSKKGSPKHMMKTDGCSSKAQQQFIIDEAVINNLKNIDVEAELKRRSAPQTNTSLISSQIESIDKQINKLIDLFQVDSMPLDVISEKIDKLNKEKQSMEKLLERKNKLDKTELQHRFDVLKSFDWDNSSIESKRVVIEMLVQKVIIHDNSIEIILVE
The experiment in a line: cell_activity.

The target of data set [5] is T5, Int15 (Listeria monocytogenes SLCC2372 (phage …)).
T5 chain: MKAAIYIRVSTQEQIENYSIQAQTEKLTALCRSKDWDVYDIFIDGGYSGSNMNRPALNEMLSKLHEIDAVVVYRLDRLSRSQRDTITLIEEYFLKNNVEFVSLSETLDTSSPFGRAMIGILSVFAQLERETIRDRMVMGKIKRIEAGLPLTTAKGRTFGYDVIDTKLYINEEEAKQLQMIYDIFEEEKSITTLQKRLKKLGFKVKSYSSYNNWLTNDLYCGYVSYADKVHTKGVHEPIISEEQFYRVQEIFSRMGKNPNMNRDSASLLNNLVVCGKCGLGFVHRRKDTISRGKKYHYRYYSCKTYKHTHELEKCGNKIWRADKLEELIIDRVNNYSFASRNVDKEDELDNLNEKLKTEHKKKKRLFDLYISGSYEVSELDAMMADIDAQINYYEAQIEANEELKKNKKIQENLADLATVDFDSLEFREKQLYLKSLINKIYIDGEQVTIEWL
The experiment in a line: cell_activity.

Data set [6] addresses T6, Int18 (Streptococcus pneumoniae JJA).
T6 chain: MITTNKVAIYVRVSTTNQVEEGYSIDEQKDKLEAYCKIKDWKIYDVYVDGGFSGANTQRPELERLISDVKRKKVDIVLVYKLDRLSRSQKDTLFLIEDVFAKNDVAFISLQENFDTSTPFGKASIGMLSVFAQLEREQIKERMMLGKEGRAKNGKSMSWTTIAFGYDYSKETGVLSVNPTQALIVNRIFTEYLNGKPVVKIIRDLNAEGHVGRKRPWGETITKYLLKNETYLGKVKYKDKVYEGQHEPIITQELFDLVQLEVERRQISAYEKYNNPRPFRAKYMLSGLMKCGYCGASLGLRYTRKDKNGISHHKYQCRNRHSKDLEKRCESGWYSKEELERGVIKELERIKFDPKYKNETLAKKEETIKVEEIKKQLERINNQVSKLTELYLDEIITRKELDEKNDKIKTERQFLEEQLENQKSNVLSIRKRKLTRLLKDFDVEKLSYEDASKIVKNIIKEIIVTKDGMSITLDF
As to the kind of experiment: cell_activity.

In data set [7] the target is T7, Int13 (Bacillus cytotoxicus NVH 391-98).
T7 chain: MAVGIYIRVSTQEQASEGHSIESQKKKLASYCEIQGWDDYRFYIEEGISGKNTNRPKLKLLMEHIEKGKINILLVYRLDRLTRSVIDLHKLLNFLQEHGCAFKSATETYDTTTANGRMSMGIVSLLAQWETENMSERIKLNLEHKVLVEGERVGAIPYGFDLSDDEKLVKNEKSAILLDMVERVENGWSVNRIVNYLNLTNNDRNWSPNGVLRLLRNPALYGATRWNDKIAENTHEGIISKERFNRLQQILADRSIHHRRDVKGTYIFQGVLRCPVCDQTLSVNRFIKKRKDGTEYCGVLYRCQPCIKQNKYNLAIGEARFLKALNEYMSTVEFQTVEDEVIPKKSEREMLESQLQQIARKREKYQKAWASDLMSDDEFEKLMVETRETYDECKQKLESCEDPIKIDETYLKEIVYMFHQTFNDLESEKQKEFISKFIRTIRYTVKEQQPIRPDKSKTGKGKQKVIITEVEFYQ
The experiment in a line: cell_activity; attB x attP EGFP inversion reporter, HEK293FT.

B1: Int21 attB (dsDNA)
DNA 1: TAGGAGGAAAAAATATGTATAATAAAGTTATCATGATTGGGCGTTTGACGTCTACACCAGAAT
DNA 2: ATTCTGGTGTAGACGTCAAACGCCCAATCATGATAACTTTATTATACATATTTTTTCCTCCTA
For the molecule B1, in data set [1], the binding signal was 0.184 fraction of Bxb1.

B2: Int22 attP (dsDNA)
DNA 1: TTATAAACCTGTTTTAAAGTTAACTTTACATGCCTAACATTAACTCTTATACAGGTTAAGGT
DNA 2: ACCTTAACCTGTATAAGAGTTAATGTTAGGCATGTAAAGTTAACTTTAAAACAGGTTTATAA
For B2, the binding signal in data set [2] is 0.945 fraction of Bxb1.

B3: Int14 attB (dsDNA)
DNA 1: TTATTGCAAGAAAAATGGGTTATAAGTACACATCAGGTTATAGTAATATCGAAAAAGGAAGC
DNA 2: GCTTCCTTTTTCGATATTACTATAACCTGATGTGTACTTATAACCCATTTTTCTTGCAATAA
Take B3: the binding signal in data set [3] is 0.248 fraction of Bxb1.

B4: Int16 attP (dsDNA)
DNA 1: GTATCTTGATGTACAACATTACTCTTTATTTTCAAATACAGAATAATGTTGCATATAATATT
DNA 2: AATATTATATGCAACATTATTCTGTATTTGAAAATAAAGAGTAATGTTGTACATCAAGATAC
With B4, the binding signal in data set [4] is 0.21 fraction of Bxb1.

B5: Int16 attB (dsDNA)
DNA 1: TTCTGGACCATGATGCGCCACTTCCGAAATTTCAAAAAGATCAGTGGTCAAACGGCTCATTA
DNA 2: TAATGAGCCGTTTGACCACTGATCTTTTTGAAATTTCGGAAGTGGCGCATCATGGTCCAGAA
For B5, the binding signal in data set [4] was 0.21 fraction of Bxb1.

B6: Int15 attP (dsDNA)
DNA 1: TTGTTTAGTCCCTCGTTTTCTCTCGTTGGACGGAGACGAATCGAGAAACTAAAATTATAAAT
DNA 2: ATTTATAATTTTAGTTTCTCGATTCGTCTCCGTCCAACGAGAGAAAACGAGGGACTAAACAA
In the case of B6, in data set [5], the binding signal is 1.86 fraction of Bxb1.

B7: Int22 attB (dsDNA)
DNA 1: CAAGAAACGTTCCGTCTGTTTGTGTCAGCTGCGCGAAATTAATGACCGGATCGTTTGTTCC
DNA 2: GGAACAAACGATCCGGTCATTAATTTCGCGCAGCTGACACAAACAGACGGAACGTTTCTTG
B7: the binding signal in data set [2] is 0.945 fraction of Bxb1.

B8: Int18 attB (dsDNA)
DNA 1: TCTGGTGTAGACGTTAAACGTCCAATCAAGATAACTTTATTATACATATTTTCTTCCTCCTA
DNA 2: TAGGAGGAAGAAAATATGTATAATAAAGTTATCTTGATTGGACGTTTAACGTCTACACCAGA
For B8, in data set [6], the binding signal is 1.76 fraction of Bxb1.

B9: Int21 attP (dsDNA)
DNA 1: GTTAATAATATGTATTTAAGTCTAACTTATCATGACAAATTTGACTAAAATACAAAAAGGC
DNA 2: GCCTTTTTGTATTTTAGTCAAATTTGTCATGATAAGTTAGACTTAAATACATATTATTAAC
Consider B9, for which the binding signal in data set [1] was 0.184 fraction of Bxb1.

B10: Int15 attB (dsDNA)
DNA 1: CTGTAACTTTTTCGGATCAAGCTATGAGGGACGCAAAGAGGGAACTAAACACTTAATTGGTG
DNA 2: CACCAATTAAGTGTTTAGTTCCCTCTTTGCGTCCCTCATAGCTTGATCCGAAAAAGTTACAG
Consider B10, for which the binding signal in data set [5] is 1.86 fraction of Bxb1.

B11: Int13 attB (dsDNA)
DNA 1: CGCATACATTGTTGTTGTTTTTCCAGATCCAGTTGGTCCTGTAAATATAAGCAATCCATGTGAGT
DNA 2: ACTCACATGGATTGCTTATATTTACAGGACCAACTGGATCTGGAAAAACAACAACAATGTATGCG
As for B11, the binding signal in data set [7] is 0.295 fraction of Bxb1.

B12: Int13 attP (dsDNA)
DNA 1: CAATAACGGTTGTATTTGTAGAACTTGACCAGTTGTTTTAGTAACATAAATACAACTCCGAATA
DNA 2: TATTCGGAGTTGTATTTATGTTACTAAAACAACTGGTCAAGTTCTACAAATACAACCGTTATTG
With B12, the binding signal in data set [7] is 0.295 fraction of Bxb1.

B13: Int14 attP (dsDNA)
DNA 1: TTATATAAAATAGTGTTTTTGTAAAGTACACATCACCATATTTGACAAAAAACCTATAAATA
DNA 2: TATTTATAGGTTTTTTGTCAAATATGGTGATGTGTACTTTACAAAAACACTATTTTATATAA
Take B13: in data set [3], the binding signal is 0.248 fraction of Bxb1.

B14: Int18 attP (dsDNA)
DNA 1: TATTTCTGTATTTTAGTCAAAGTAATTAAGATAAGTTAGAGTTAGTAACAGTATTTTAACTT
DNA 2: AAGTTAAAATACTGTTACTAACTCTAACTTATCTTAATTACTTTGACTAAAATACAGAAATA
For the molecule B14, in data set [6], the binding signal was 1.76 fraction of Bxb1.
